Results from patent US20200325218A1 (Novartis, published 2020).

T1: recombinant cynomolgus monkey TSLP (cynomolgus monkey, UniProt Q969D9 29-159 (human entry), limits assumed)
T1 chain: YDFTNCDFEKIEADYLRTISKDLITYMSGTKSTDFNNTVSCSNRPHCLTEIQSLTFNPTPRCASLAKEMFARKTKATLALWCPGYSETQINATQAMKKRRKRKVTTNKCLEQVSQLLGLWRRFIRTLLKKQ

T2: recombinant mouse TSLP (mouse, UniProt Q9JIE6 20-140)
T2 construct: Bought from R&D Systems (MW 15 kDa); also called mTSLP; murine TSLP
T2 sequence: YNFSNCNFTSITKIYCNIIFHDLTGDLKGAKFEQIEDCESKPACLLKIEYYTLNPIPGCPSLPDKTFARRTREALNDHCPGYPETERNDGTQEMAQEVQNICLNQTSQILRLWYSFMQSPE


Legend:
[1] = target: T3, recombinant human TSLP (human, UniProt Q969D9 29-159); test: solution equilibrium titration (SET), MSD electrochemiluminescence
T3 construct: Residues 29-159 follow its statement that the mature protein starts at Tyr29; also called rhTSLP; hTSLP
Description: (§1) The Fab was incubated at a constant concentration with serial dilutions of the respective antigens. The binding affinity was extracted from a competition curve which was generated by plotting the read-out of the concentration of unbound antibody against the applied antigen concentration.
(§2) A 384-well MSD array MTP was coated o/n at 4° C. with 30 μl/well of hsTSLP (produced in E. coli) diluted in PBS at 5 μg/ml, then washed three times with 70 μl/well of wash buffer and blocked with 50 μl/well of blocking buffer for 1 h at RT on a shaker. After washing, a volume of 30 μl/well of the equilibrated antigen-Fab mix was transferred from the polypropylene MTP to the coated MSD plate and incubated for 20 min at RT.

[2] = target: naturally-secreted human TSLP (human, UniProt Q969D9 29-159); test: cell-based or functional assay
[3] = target: T1, recombinant cynomolgus monkey TSLP; test: cell-based or functional assay
[4] = target: T3, recombinant human TSLP; test: cell-based or functional assay
[5] = target: T1, recombinant cynomolgus monkey TSLP; test: solution equilibrium titration (SET), antigen titrated in solution, free Fab read on an E. coli hsTSLP-coated MSD plate, mean of 3 experiments ± SD
Description: as §1, §2

[6] = target: T4, human TSLP (HEK) (human, UniProt Q969D9 29-159); test: as above
T4 construct: also called human TSLP (produced in HEK cells)
Description: as §1, §2

[7] = target: T2, recombinant mouse TSLP; test: Biacore SPR, Fab1 captured on a human Fab binder CM5 chip, TSLP injected
Description: Human Fab binder was immobilized on all four flow cells of a CM5 chip using a Human Fab Capture kit following manufacturer's instructions. A contact time of 360 seconds at a flow rate of 10 uL/min was specified. The temperature of the sample compartment was 10° C. and analysis temperature was 25° C.; prior to immobilization, the CM5 chip was primed with HBS-EP+ and normalized with BIAnormalizing solution. 375 uL of 20 ug/mL human Fab binder was prepared by combining 15 uL 0.5 mg/mL stock with 360 uL pH5 immobilization buffer (both provided in Human Fab Capture kit).
The temperature of the sample compartment was 10° C. and analysis temperature was 25° C. […] Regeneration of the Fab binder surface was achieved after each cycle by injecting 10 mM glycine-HCl, pH 2.0 for 60 s at 10 uL/min, followed by an extra wash with HBS-EP+ buffer. The temperature of the sample compartment was 10° C. and analysis temperature was 25° C.

[8] = target: T5, His6-PreSc-TSLP (recombinant human TSLP used in crystallography) (human); test: complex purified by size-exclusion chromatography and solved by X-ray crystallography
T5 construct: also called TSLP (chain T)
T5 sequence (chain, as listed by the source limits assumed): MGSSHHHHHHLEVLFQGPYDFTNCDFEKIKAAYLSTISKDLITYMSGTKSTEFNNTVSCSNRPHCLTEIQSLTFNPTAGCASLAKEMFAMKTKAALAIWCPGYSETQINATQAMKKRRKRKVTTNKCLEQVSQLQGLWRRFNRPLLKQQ
Description: The peak fraction was concentrated to 9.2 mg/ml by ultrafiltration and submitted to crystallization screening.

Row | Kd [1] [pM] | IC50, luciferase reporter gene assay (Ba/F3 cells with hTSLPR, hIL7Rα and Stat5-luciferase) [2] [pM] | IC50, TSLP-induced MDC secretion from cyno PBMC [3] [pM] | IC50, TSLP-induced TARC secretion from human PBMC [3] [pM] | IC50, luciferase reporter gene assay (Ba/F3 cells with hTSLPR, hIL7Rα and Stat5-luciferase) [3] [pM] | mean IC50 (n=3), TSLP-induced MDC secretion from cyno PBMC [3] [pM] | mean IC50 (n=3), TSLP-induced TARC secretion from human PBMC [3] [pM] | mean IC50 (n=3), luciferase reporter gene assay [3] [pM] | IC50, TSLP-induced TARC secretion from human PBMC [4] [pM] | IC50, luciferase reporter gene assay (Ba/F3 cells with hTSLPR, hIL7Rα and Stat5-luciferase) [4] [pM] | mean IC50 (n=3), TSLP-induced TARC secretion from human PBMC [4] [pM] | mean IC50 (n=3), luciferase reporter gene assay [4] [pM] | Kd [5] [pM] | Kd [6] [pM] | binding result [8] | Binder | binding result [7]
1 | 6 | 17.1 | 55.5 | 11.3 | 10.8 | 25.1 | 11.1 | 9.5 | 20.3 | 15.4 | 19.7 | 15.3 | 1.4 | 5 | – | anti-TSLP Fab1 (Fab, V domains shown, also called anti-human TSLP Fab1; Fab fragment of MOR014824 (Mab1)) VH: EVQLVESGGGLVKPGGSLRLSCAASGFTFSDYWMHWVRQAPGKGLEWVGHIKSKTDAGTTDYAAPVKGRFTISRDDSKNTLYLQMNSLKTEDTAVYYCAREIYYYAFDSWGQGTLVTVSS VL: SYELTQPLSVSVALGQTARITCSGDNIGSKYVHWYQQKPGQAPVLVIYGDNERPSGIPERFSGSNSGNTATLTISRAQAGDEADYYCQAADWVDFYVFGGGTKLTVLG | no binding (tested: 10 nM highest antigen concentration)
2 | – | – | – | – | – | – | – | – | – | – | – | – | – | – | binds | anti-TSLP Fab1 generated by papain digestion of anti-TSLP mAb1 (crystallography sample) (Fab, V domains shown, pyroglutamic acid residue at the amino-terminus, also called the Fab) VH: EVQLVESGGGLVKPGGSLRLSCAASGFTFSDYWMHWVRQAPGKGLEWVGHIKSKTDAGTTDYAAPVKGRFTISRDDSKNTLYLQMNSLKTEDTAVYYCAREIYYYAFDSWGQGTLVTVSS VL: SYELTQPLSVSVALGQTARITCSGDNIGSKYVHWYQQKPGQAPVLVIYGDNERPSGIPERFSGSNSGNTATLTISRAQAGDEADYYCQAADWVDFYVFGGGTKLTVLG | –
